B1: Ly2936 (multi-specific antibody)
chain 1: QVQLVQSGAEVKKPGASVKVSCKASGYTFTSYVMHWVRQKPGQGLEWIGYINPYNEGTESTDKFKGRATMTSDKSTSTVYMELSSLRSEDTAVYYCASIYYGYEGTYFGVWGQGTLVTVSSASTKGPSVFPLAPSSKSTSGGTAALGCLVKDYFPEPVTVSWNSGALTSGVHTFPAVLQSSGLYSLSSVVTVPSSSLGTQTYICNVNHKPSNTKVDKKVEPKSCGGGGSGGGGSGGGGSGGGGSEVQLVESGGGLVQPGGSLRLSCAASGFTFSTYAMNWVRQAPGKGLEWVGRIRSKYNNYATYYADSVKGRFTISRDDSKNSLYLQMNSLKTEDTAVYYCVRHGNFGNSYVSWFAYWGQGTLVTVSSGGGGSDKTHTCPPCPAPELLGPSVFLFPPKPKDTLMISRTPEVTCVVVDVSHEDPEVKFNWYVDGVEVHNAKTKPREEQYNSTYRVVSVLTVLHQDWLNGKEYKCKVSNKALGAPIEKTISKAKGQPREPQVYTLPPSREEMTKNQVSLWCLVKGFYPSDIAVEWESNGQPENNYKTTPPVLDSDGSFFLYSKLTVDKSRWQQGNVFSCSVMHEALHNHYTQKSLSLSPGKGGGGSGGGGSGGGGSGGGGSQVQLVQSGAEVKKPGASVKVSCKASGYTFAGFEMHWVRQAPGQGLEWMGAIDPKTGGTDYNQKFKDRVTMTRDTSISTAYMELSRLRSDDTAVYYCARDLGYFDVWGQGTLVTVSS
chain 2: QVQLVQSGAEVKKPGASVKVSCKASGYTFTSYVMHWVRQKPGQGLEWIGYINPYNEGTESTDKFKGRATMTSDKSTSTVYMELSSLRSEDTAVYYCASIYYGYEGTYFGVWGQGTLVTVSSASTKGPSVFPLAPSSKSTSGGTAALGCLVKDYFPEPVTVSWNSGALTSGVHTFPAVLQSSGLYSLSSVVTVPSSSLGTQTYICNVNHKPSNTKVDKKVEPKSCGGGGSGGGGSGGGGSGGGGSQAVVTQEPSLTVSPGGTVTLTCRSSTGAVTTSNYANWVQQKPGQAPRGLIGGTNKRAPWTPARFSGSLLGGKAALTITGAQAEDEADYYCALWYSNLWVFGGGTKLTVLGGGGSDKTHTCPPCPAPELLGPSVFLFPPKPKDTLMISRTPEVTCVVVDVSHEDPEVKFNWYVDGVEVHNAKTKPREEQYNSTYRVVSVLTVLHQDWLNGKEYKCKVSNKALGAPIEKTISKAKGQPREPQVYTLPPSREEMTKNQVSLSCAVKGFYPSDIAVEWESNGQPENNYKTTPPVLDSDGSFFLVSKLTVDKSRWQQGNVFSCSVMHEALHNRFTQKSLSLSPGKGGGGSGGGGSGGGGSGGGGSDIQMTQSPSSLSASVGDRVTITCRASQDIRSNLNWYQQKPGGAVKLLIYYTSRLHSGVPSRFSGSGSGTDYTLTISSLQPEDFATYFCQQSEKLPRTFGGGTKVEIR
chain 3: EIVLTQSPATLSLSPGERATLSCRASSSVSYMHWYQQKPGQAPRPWIYATSNLASGIPARFSGSRSGTDYTLTISSLEPEDFAVYYCQQWSSNTLTFGGGTKVEIKRTVAAPSVFIFPPSDEQLKSGTASVVCLLNNFYPREAKVQWKVDNALQSGNSQESVTEQDSKDSTYSLSSTLTLSKADYEKHKVYACEVTHQGLSSPVTKSFNRGEC
notes: B7H3/CD3/CD137
B2: Ly2940 (bispecific antibody, human IgG1, kappa)
chain 1: QVQLVQSGAEVKKPGASVKVSCKASGYTFTSYVMHWVRQKPGQGLEWIGYINPYNEGTESTDKFKGRATMTSDKSTSTVYMELSSLRSEDTAVYYCASIYYGYEGTYFGVWGQGTLVTVSSASTKGPSVFPLAPSSKSTSGGTAALGCLVKDYFPEPVTVSWNSGALTSGVHTFPAVLQSSGLYSLSSVVTVPSSSLGTQTYICNVNHKPSNTKVDKKVEPKSCDKTHTCPPCPAPELLGPSVFLFPPKPKDTLMISRTPEVTCVVVDVSHEDPEVKFNWYVDGVEVHNAKTKPREEQYNSTYRVVSVLTVLHQDWLNGKEYKCKVSNKALGAPIEKTISKAKGQPREPQVYTLPPSREEMTKNQVSLWCLVKGFYPSDIAVEWESNGQPENNYKTTPPVLDSDGSFFLYSKLTVDKSRWQQGNVFSCSVMHEALHNHYTQKSLSLSPGKGGGGSGGGGSGGGGSGGGGSQVQLVQSGAEVKKPGASVKVSCKASGYTFAGFEMHWVRQAPGQGLEWMGAIDPKTGGTDYNQKFKDRVTMTRDTSISTAYMELSRLRSDDTAVYYCARDLGYFDVWGQGTLVTVSS
chain 2: QVQLVQSGAEVKKPGASVKVSCKASGYTFTSYVMHWVRQKPGQGLEWIGYINPYNEGTESTDKFKGRATMTSDKSTSTVYMELSSLRSEDTAVYYCASIYYGYEGTYFGVWGQGTLVTVSSASTKGPSVFPLAPSSKSTSGGTAALGCLVKDYFPEPVTVSWNSGALTSGVHTFPAVLQSSGLYSLSSVVTVPSSSLGTQTYICNVNHKPSNTKVDKKVEPKSCDKTHTCPPCPAPELLGPSVFLFPPKPKDTLMISRTPEVTCVVVDVSHEDPEVKFNWYVDGVEVHNAKTKPREEQYNSTYRVVSVLTVLHQDWLNGKEYKCKVSNKALGAPIEKTISKAKGQPREPQVYTLPPSREEMTKNQVSLSCAVKGFYPSDIAVEWESNGQPENNYKTTPPVLDSDGSFFLVSKLTVDKSRWQQGNVFSCSVMHEALHNRFTQKSLSLSPGKGGGGSGGGGSGGGGSGGGGSDIQMTQSPSSLSASVGDRVTITCRASQDIRSNLNWYQQKPGGAVKLLIYYTSRLHSGVPSRFSGSGSGTDYTLTISSLQPEDFATYFCQQSEKLPRTFGGGTKVEIR
chain 3: B1 chain 3
notes: B7H3/CD137; anti-CD137 Fv on C-terminal
B3: Ly2937 (multi-specific antibody)
chain 1: not shown
chain 2: QVQLVQSGAEVKKPGASVKVSCKASGYTFTSYVMHWVRQKPGQGLEWIGYINPYNEGTESTDKFKGRATMTSDKSTSTVYMELSSLRSEDTAVYYCASIYYGYEGTYFGVWGQGTLVTVSSASTKGPSVFPLAPSSKSTSGGTAALGCLVKDYFPEPVTVSWNSGALTSGVHTFPAVLQSSGLYSLSSVVTVPSSSLGTQTYICNVNHKPSNTKVDKKVEPKSCGGGGSGGGGSGGGGSGGGGSQIVLTQSPAIMSASPGEKVTMTCSASSSVSYMNWYQQKSGTSPKRWIYDTSKLASGVPAHFRGSGSGTSYSLTISGMEAEDAATYYCQQWSSNPFTFGSGTKLEINGGGGSDKTHTCPPCPAPELLGPSVFLFPPKPKDTLMISRTPEVTCVVVDVSHEDPEVKFNWYVDGVEVHNAKTKPREEQYNSTYRVVSVLTVLHQDWLNGKEYKCKVSNKALGAPIEKTISKAKGQPREPQVYTLPPSREEMTKNQVSLSCAVKGFYPSDIAVEWESNGQPENNYKTTPPVLDSDGSFFLVSKLTVDKSRWQQGNVFSCSVMHEALHNRFTQKSLSLSPGKGGGGSGGGGSGGGGSGGGGSDIQMTQSPSSLSASVGDRVTITCRASQDIRSNLNWYQQKPGGAVKLLIYYTSRLHSGVPSRFSGSGSGTDYTLTISSLQPEDFATYFCQQSEKLPRTFGGGTKVEIR
chain 3: B1 chain 3
notes: B7H3/CD3/CD137
B4: Ly2823 (multi-specific antibody)
chain 1: EVQLVESGGGLVKPGGSLKLSCEASRFTFSSYAMSWVRQTPEKRLEWVAAISGGGRYTYYPDSMKGRFTISRDNAKNFLYLQMSSLRSEDTAMYYCARHYDGYLDYWGQGTTLTVSSASTKGPSVFPLAPSSKSTSGGTAALGCLVKDYFPEPVTVSWNSGALTSGVHTFPAVLQSSGLYSLSSVVTVPSSSLGTQTYICNVNHKPSNTKVDKKVEPKSCGGGGSGGGGSGGGGSGGGGSEVQLVESGGGLVQPGGSLRLSCAASGFTFSTYAMNWVRQAPGKGLEWVGRIRSKYNNYATYYADSVKGRFTISRDDSKNSLYLQMNSLKTEDTAVYYCVRHGNFGNSYVSWFAYWGQGTLVTVSSGGGGSDKTHTCPPCPAPELLGPSVFLFPPKPKDTLMISRTPEVTCVVVDVSHEDPEVKFNWYVDGVEVHNAKTKPREEQYNSTYRVVSVLTVLHQDWLNGKEYKCKVSNKALGAPIEKTISKAKGQPREPQVYTLPPSREEMTKNQVSLWCLVKGFYPSDIAVEWESNGQPENNYKTTPPVLDSDGSFFLYSKLTVDKSRWQQGNVFSCSVMHEALHNHYTQKSLSLSPGKGGGGSGGGGSGGGGSGGGGSQVQLVQSGAEVKKPGASVKVSCKASGYTFAGFEMHWVRQAPGQGLEWMGAIDPKTGGTDYNQKFKDRVTMTRDTSISTAYMELSRLRSDDTAVYYCARDLGYFDVWGQGTLVTVSS
chain 2: EVQLVESGGGLVKPGGSLKLSCEASRFTFSSYAMSWVRQTPEKRLEWVAAISGGGRYTYYPDSMKGRFTISRDNAKNFLYLQMSSLRSEDTAMYYCARHYDGYLDYWGQGTTLTVSSASTKGPSVFPLAPSSKSTSGGTAALGCLVKDYFPEPVTVSWNSGALTSGVHTFPAVLQSSGLYSLSSVVTVPSSSLGTQTYICNVNHKPSNTKVDKKVEPKSCGGGGSGGGGSGGGGSGGGGSQAVVTQEPSLTVSPGGTVTLTCRSSTGAVTTSNYANWVQQKPGQAPRGLIGGTNKRAPWTPARFSGSLLGGKAALTITGAQAEDEADYYCALWYSNLWVFGGGTKLTVLGGGGSDKTHTCPPCPAPELLGPSVFLFPPKPKDTLMISRTPEVTCVVVDVSHEDPEVKFNWYVDGVEVHNAKTKPREEQYNSTYRVVSVLTVLHQDWLNGKEYKCKVSNKALGAPIEKTISKAKGQPREPQVYTLPPSREEMTKNQVSLSCAVKGFYPSDIAVEWESNGQPENNYKTTPPVLDSDGSFFLVSKLTVDKSRWQQGNVFSCSVMHEALHNHYTQKSLSLSPGKGGGGSGGGGSGGGGSGGGGSDIQMTQSPSSLSASVGDRVTITCRASQDIRSNLNWYQQKPGGAVKLLIYYTSRLHSGVPSRFSGSGSGTDYTLTISSLQPEDFATYFCQQSEKLPRTFGGGTKVEIR
chain 3: DIVMTQSHKFMSTSIGARVSITCKASQDVRTAVAWYQQKPGQSPKLLIYSASYRYTGVPDRFTGSGSGTDFTFTISSVQAEDLAVYYCQQHYGTPPWTFGGGTKLEIKRTVAAPSVFIFPPSDEQLKSGTASVVCLLNNFYPREAKVQWKVDNALQSGNSQESVTEQDSKDSTYSLSSTLTLSKADYEKHKVYACEVTHQGLSSPVTKSFNRGEC
notes: B7H3/CD3/CD137

These binders were tested against T1, CD137 (human, UniProt Q07011 24-186) (assay: FCM or ELISA, graded).
T1 construct: Whole on GS-H2-huCD137 reporter cells in the reporter assays; also called 4-1BB
B1: binds. B2: binds. B3: binds. B4: binds.
